This passage reports Km and kcat/Km results from US20050164323A1, “Methods of treating asthma” (Wyeth, priority 2003, published 2005).

For orientation: Km means the substrate concentration at which the rate is half of its maximum. As a reminder, the kcat/Km is the second-order rate constant that governs catalysis at low substrate concentration.

Substrate in series [1]: Nc1ncnc2c1ncn2[C@@H]1O[C@H](COP(=O)(O)OP(=O)(O)OP(=O)(O)O)[C@@H](O)[C@H]1O
The series is described as follows: purified protein, by the assay type. As to conditions: pH 7.5, 25.0 °C.

Substrate in series [2]: CC(C)C[C@H](NC(=O)[C@H](CO)NC(=O)CNC(=O)[C@H](CCCCN)NC(=O)[C@H](CCCNC(=N)N)NC(=O)[C@H](C)NC(=O)[C@@H](N)Cc1ccccc1)C(=O)N[C@@H](CCCNC(=N)N)C(=O)N[C@@H](CCC(N)=O)C(=O)O
The series is described as follows: coupled PK/LDH assay: steady-state kinetics, product and dead-end inhibition of PKC-θ KD. It is filed as biochemical, human. The note with it: other: varied peptide substrate, saturating ATP, pH 7.5.

B1: PKC-θ KD (Homo sapiens) (protein)
chain: MGPELNKERPSLQIKLKIEDFILHKMLGKGSFGKVFLAEFKKTNQFFAIKALKKDVVLMDDDVECTMVEKRVLSLAWEHPFLTHMFCTFQTKENLFFVMEYLNGGDLMYHIQSCHKFDLSRATFYAAEIILGLQFLHSKGIVYRDLKLDNILLDKDGHIKIADFGMCKENMLGDAKTNTFCGTPDYIAPEILLGQKYNHSVDWWSFGVLLYEMLIGQSPFHGQDEEELFHSIRMDNPFYPRWLEKEAKDLLVKLFVREPEKRLGVRGDIRQHPLFREINWEELERKEIDPPFRPKVKSPFDCSNFDKEFLNEKPRLSFADRALINSMDQNMFRNFSFMNPGMERLISHHHHHH
notes: PKC-θ KD (amino acid residues 362 to 706) was cloned into a pET16b expression vector; hexa-histidine (C); Met-Gly (non-native N-terminal residues) (N); made in house; host or cells: E. coli BL21-DE3 (pET16b)
Take B1: the Michaelis-Menten constant (Km) stood at 25 µM in series [1] (other: 0 mM NaCl); 321 ± 19 µM in series [1] (other: initial velocity with peptide 1, 625 mM NaCl); 118 ± 17 µM in series [1] (other: initial velocity, varied ATP vs peptide 3, 100 mM NaCl). In addition, the specificity constant (kcat/Km) in series [2] stood at 2.7e+06 M⁻¹ s⁻¹.
